The numbers were not newly measured in US20040071657A1, “Chemoattractant recruitment of dendritic cells for enhancement of immunization” (priority 2003, published 2004), which cites them from elsewhere.

The data set relates to circulating DC. The settings on record: in vivo administration to mice.

B1: Flt3-L: Flt3 ligand, a growth factor polypeptide that promotes dendritic cell growth (protein, UniProt P49771 27-235, looked up)
Fms-related tyrosine kinase 3 …: TQDCSFQHSPISSDFAVKIRELSDYLLQDYPVTVASNLQDEELCGGLWRLVLAQRWMERLKTVAGSKMQGLLERVNTEIHFVTKCAFQPPPSCLRFVQTNISRLLQETSEQLVALKPWITRQNFSRCLELQCQPDSSTLPPPWSPRPLEATAPTAPQPPLLLLLLLPVGLLLLAAAWCLHWQRTRRRTPRPGEQVPPVPSPQDLLLVEH
Take B1: the “increase in the number of circulating DC” value is reported as 10-30 fold.
